In patent US20240133890A1:

Biological target: WSTF (BAZ1B) (UniProt Q9UIG0)
Chain of UniProt Q9UIG0 (Q9UIG0 whole entry): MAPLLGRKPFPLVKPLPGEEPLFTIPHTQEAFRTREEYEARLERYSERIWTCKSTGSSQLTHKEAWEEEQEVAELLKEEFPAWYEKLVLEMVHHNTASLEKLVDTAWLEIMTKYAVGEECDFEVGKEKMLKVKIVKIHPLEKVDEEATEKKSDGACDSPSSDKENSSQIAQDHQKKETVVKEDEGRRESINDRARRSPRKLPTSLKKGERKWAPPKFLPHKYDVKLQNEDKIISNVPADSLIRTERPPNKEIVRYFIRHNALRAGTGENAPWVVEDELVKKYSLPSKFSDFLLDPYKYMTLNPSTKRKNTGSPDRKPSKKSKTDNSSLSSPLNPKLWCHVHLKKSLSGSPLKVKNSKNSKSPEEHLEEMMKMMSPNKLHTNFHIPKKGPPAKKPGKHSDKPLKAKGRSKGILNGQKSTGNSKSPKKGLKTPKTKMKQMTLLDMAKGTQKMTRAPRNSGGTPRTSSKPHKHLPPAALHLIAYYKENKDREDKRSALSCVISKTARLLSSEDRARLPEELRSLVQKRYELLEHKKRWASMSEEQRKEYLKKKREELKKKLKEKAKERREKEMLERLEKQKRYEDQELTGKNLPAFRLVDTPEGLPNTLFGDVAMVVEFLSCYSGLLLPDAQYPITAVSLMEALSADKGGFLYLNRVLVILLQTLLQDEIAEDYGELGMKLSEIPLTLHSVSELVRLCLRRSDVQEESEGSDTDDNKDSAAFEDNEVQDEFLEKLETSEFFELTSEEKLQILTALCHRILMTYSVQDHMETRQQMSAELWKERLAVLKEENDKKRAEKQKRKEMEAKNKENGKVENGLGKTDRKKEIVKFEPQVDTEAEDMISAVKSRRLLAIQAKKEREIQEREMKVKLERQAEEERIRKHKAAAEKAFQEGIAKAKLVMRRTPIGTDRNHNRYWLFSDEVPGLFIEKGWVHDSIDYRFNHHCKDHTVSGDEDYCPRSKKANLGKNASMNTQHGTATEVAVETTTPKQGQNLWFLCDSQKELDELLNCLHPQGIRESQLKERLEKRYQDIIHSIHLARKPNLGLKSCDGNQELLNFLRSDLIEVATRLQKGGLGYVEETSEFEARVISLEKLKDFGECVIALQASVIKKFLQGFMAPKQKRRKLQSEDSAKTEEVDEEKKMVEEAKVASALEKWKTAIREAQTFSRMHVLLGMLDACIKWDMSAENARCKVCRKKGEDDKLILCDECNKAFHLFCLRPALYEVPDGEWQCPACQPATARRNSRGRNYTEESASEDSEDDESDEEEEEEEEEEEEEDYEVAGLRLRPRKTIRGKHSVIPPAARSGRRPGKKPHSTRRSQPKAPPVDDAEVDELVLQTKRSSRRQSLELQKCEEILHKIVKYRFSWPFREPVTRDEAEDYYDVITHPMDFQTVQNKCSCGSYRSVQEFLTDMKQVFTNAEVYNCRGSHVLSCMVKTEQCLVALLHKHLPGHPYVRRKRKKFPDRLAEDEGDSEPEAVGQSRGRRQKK

Which “level of WSTF hydroxylation (Western blot with Ab1, MCF-7 nucleoprotein)” value does the source give for JMJD6 here?
Its value is “after JMJD6 knockdown or mutation, the level of WSTF hydroxylation was significantly reduced”.
